Assay results taken from publication PMC5787837.

Experiments:
[1] = biological target: HFBII–Protein A fusion protein (Trichoderma reesei | Staphylococcus aureus); test: QCM-D (quartz crystal microbalanc); conditions: scale: moles of rituximab per mole of immobilized HFBII–Protein A
[2] = biological target: HFBI–Protein A fusion protein (Trichoderma reesei | Staphylococcus aureus); test: QCM-D (quartz crystal microbalanc); conditions: scale: moles of rituximab per mole of immobilized HFBI–Protein A
[3] = biological target: commercial Protein A (Sigma-Aldrich) (Staphylococcus aureus) (UniProt P38507); test: QCM-D (quartz crystal microbalance with dissipation monitoring)

Question: rituximab (antibody) was tested. Which stoichiometry N [1] did it give?
Answer: 1.2

Question: And the stoichiometry N [2]?
Answer: 1.5

Question: What about the stoichiometry N [3] of the same substance?
Answer: 1.2
